Among the data in US20250059285A1 are % Competition against g7B07-Biot and Mean OD value values, retold here.

The assay has as its target human Gal10-His (human) (UniProt Q05315). Put plainly: competition ELISA on coated Gal10-His; negative control, competitor g7B07-hFab-Biot; set as 0%. (In general: In an ELISA, binding on a coated surface is turned into a signal by an enzyme label.)

human Gal10-His (human), sequence (Q05315 2-142 limits assumed): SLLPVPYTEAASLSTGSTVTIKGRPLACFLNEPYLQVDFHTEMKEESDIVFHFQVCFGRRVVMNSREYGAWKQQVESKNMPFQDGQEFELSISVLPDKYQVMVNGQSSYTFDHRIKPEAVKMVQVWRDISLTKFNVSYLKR

Motavizumab in a human Fab backbone: the % Competition against g7B07-Biot is 0% and the Mean OD value worked out at 2.51 OD.
